Key:
[1] = compound: O=P(O)(O)OC[C@H]1O[C@@H](O)[C@H](O)[C@@H]1O; assay: Competitive inhibition of Spinacia oleracea RPIA assessed as Km using D-ribose-5-phosphate as substrate
[2] = compound: O=P(O)(O)OC[C@H]1O[C@@H](O)[C@H](O)[C@@H]1O; assay: Competitive inhibition of Spinacia oleracea RPIA assessed as Km using D-ribose-5-phosphate as substrate by ultraviolet absorbance based spectrophotometric analysis
[3] = compound: O=P(O)(O)OC[C@H]1O[C@@H](O)[C@H](O)[C@@H]1O; assay: Competitive inhibition of Spinacia oleracea RPIA assessed as Km using D-ribose-5-phosphate as substrate by Michaelis-Menten kinetics analysis
[4] = compound: O=P(O)(O)OC[C@H]1O[C@@H](O)[C@H](O)[C@@H]1O; assay: Competitive inhibition of Escherichia coli RPIB assessed as Km using D-ribose-5-phosphate as substrate
[5] = compound: O=P(O)(O)OC[C@H]1O[C@@H](O)[C@H](O)[C@@H]1O; assay: Competitive inhibition of Escherichia coli RPIB assessed as Km using D-ribose-5-phosphate as substrate by spectrophotometric analysis
[6] = compound: O=P(O)(O)OC[C@H]1O[C@@H](O)[C@H](O)[C@@H]1O; assay: Competitive inhibition of Escherichia coli RPIB assessed as Km using D-ribose-5-phosphate as substrate by ultraviolet absorbance based spectrophotometric analysis
[7] = compound: O=P(O)(O)OC[C@H]1O[C@@H](O)[C@H](O)[C@@H]1O; assay: Competitive inhibition of Mycobacterium tuberculosis RPIB assessed as Km using D-ribose-5-phosphate as substrate
[8] = compound: O=P(O)(O)OC[C@H]1O[C@@H](O)[C@H](O)[C@@H]1O; assay: Competitive inhibition of Mycobacterium tuberculosis RPIB assessed as Km using D-ribose-5-phosphate as substrate by spectrophotometric analysis
[9] = compound: O=P(O)(O)OC[C@H]1O[C@@H](O)[C@H](O)[C@@H]1O; assay: Competitive inhibition of Mycobacterium tuberculosis RPIB assessed as Km using D-ribose-5-phosphate as substrate by ultraviolet absorbance based spectrophotometric analysis
[10] = compound: O=P(O)(O)OC[C@H]1O[C@@H](O)[C@H](O)[C@@H]1O; assay: Competitive inhibition of Mycobacterium tuberculosis H37Rv RPIB extracted from Escherichia coli BL21 assessed as Km using D-ribose-5-phosphate as substrate incubated for 10 mins by ultraviolet absorbance based spectrophotometric analysis

B1: ribose-5-phosphate isomerase (Spinacia oleracea), Q8RU73 (protein)
chain: MASAAFSLLPSTSSTTFNRHATTKLLNLKFLHNHRNKPFFTTTIKSLSSPSPTPVLTQDDLKKLAAEKAVDSVKSGMVLGLGTGSTAAFAVSRIGELLSAGKLTNIVGIPTSKRTAEQAASLGIPLSVLDDHPRIDLAIDGADEVDPDLNLVKGRGGALLREKMVEAASDKFIVVVDDTKLVDGLGGSRLAMPVEVVQFCWKYNLKRLQEIFKELGCEAKLRMEGDSSPYVTDNSNYIVDLYFPTSIKDAEAAGREISALEGVVEHGLFLGMASEVIIAGKTGVSVKTK
Km [1]: 3000 µM | Km [2]: 3300 µM | Km [3]: 7500 µM

B2: Ribose-5-phosphate isomerase B (Escherichia coli (strain K12)), P37351 (protein)
chain: MKKIAFGCDHVGFILKHEIVAHLVERGVEVIDKGTWSSERTDYPHYASQVALAVAGGEVDGGILICGTGVGISIAANKFAGIRAVVCSEPYSAQLSRQHNDTNVLAFGSRVVGLELAKMIVDAWLGAQYEGGRHQQRVEAITAIEQRRN
Km [4]: 1600 µM | Km [5]: 1500 µM | Km [6]: 1100 µM

B3: Ribose-5-phosphate isomerase B (Mycobacterium tuberculosis), P9WKD7 (protein)
chain: MSGMRVYLGADHAGYELKQRIIEHLKQTGHEPIDCGALRYDADDDYPAFCIAAATRTVADPGSLGIVLGGSGNGEQIAANKVPGARCALAWSVQTAALAREHNNAQLIGIGGRMHTVAEALAIVDAFVTTPWSKAQRHQRRIDILAEYERTHEAPPVPGAPA
Km [7]: 2100 µM | Km [8]: 3100 µM | Km [9]: 1000 µM | Km [10]: 3700 µM
